From US20120087931A1
Where “and” joins values, the source holds several entries; their conditions need not be identical. Equal values may be shown once.

Key:
[1] = target: theta antigen on BW mouse tumor cells; assay: staining of BW mouse cells transfected with theta (method not given)
[2] = target: membrane Hsp70 on mouse tumor cells (mouse) (UniProt Q61696); assay: cell-based or functional assay
[3] = target: membrane Hsp70 on mouse tumor cells (mouse) (UniProt Q61696); assay: flow cytometry, CT26 cells used as ADCC targets (FIG. 8)
[4] = target: membrane Hsp70 on mouse tumor cells (mouse) (UniProt Q61696); assay: flow cytometry, CT26 cells used as ADCC targets (FIG. 9A)
[5] = target: membrane Hsp70 on mouse tumor cells (mouse) (UniProt Q61696); assay: flow cytometry, CT26 cells used as ADCC targets (FIG. 9B)
[6] = target: membrane Hsp70 on mouse tumor cells (mouse) (UniProt Q61696); assay: flow cytometry at 4 C, viable ADJ (BALB/c) plasmocytoma cells
[7] = target: membrane Hsp70 on mouse tumor cells (mouse) (UniProt Q61696); assay: flow cytometry at 4 C, viable MOS162 (C3H) osteosarcoma cells
[8] = target: membrane Hsp70 on mouse tumor cells (mouse) (UniProt Q61696); assay: flow cytometry at 4 C, viable B16/F10 (C57/Bl6) melanoma cells
[9] = target: membrane Hsp70 on mouse tumor cells (mouse) (UniProt Q61696); assay: flow cytometry at 4 C, viable CT26 (BALB/c) colon carcinoma cells
[10] = target: purified human Hsp70 protein (human) (UniProt P0DMV8); assay: SPR, Biacore X, 25 C, Hsp70 0.78-50 nM, global fit to a 1:1 model
UniProt P0DMV8, sequence (P0DMV8 whole entry): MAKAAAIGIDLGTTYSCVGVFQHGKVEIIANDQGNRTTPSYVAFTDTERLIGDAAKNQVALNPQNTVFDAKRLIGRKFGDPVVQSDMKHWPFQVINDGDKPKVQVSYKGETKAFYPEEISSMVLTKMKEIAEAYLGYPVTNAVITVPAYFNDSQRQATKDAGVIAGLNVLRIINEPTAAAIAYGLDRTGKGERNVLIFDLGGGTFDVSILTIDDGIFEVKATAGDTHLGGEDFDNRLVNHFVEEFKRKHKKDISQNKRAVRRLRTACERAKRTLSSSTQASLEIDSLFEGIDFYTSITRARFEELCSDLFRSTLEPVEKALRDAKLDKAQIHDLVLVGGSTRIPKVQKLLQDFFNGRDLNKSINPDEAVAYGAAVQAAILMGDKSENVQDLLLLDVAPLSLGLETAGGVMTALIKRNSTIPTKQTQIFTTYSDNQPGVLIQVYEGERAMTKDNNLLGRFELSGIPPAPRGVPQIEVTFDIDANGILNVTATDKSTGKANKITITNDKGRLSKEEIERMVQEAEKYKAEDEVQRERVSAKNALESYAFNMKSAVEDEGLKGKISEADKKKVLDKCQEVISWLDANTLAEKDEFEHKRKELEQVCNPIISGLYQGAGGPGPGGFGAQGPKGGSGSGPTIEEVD

[11] = target: membrane Hsp70 on mouse tumor cells (mouse) (UniProt Q61696); assay: flow cytometry, cultured CT26 cells; antibody not named
[12] = target: membrane Hsp70 on mouse tumor cells (mouse) (UniProt Q61696); assay: flow cytometry at 4 C, CT26 cells, cmHsp70.1-FITC 5 µg/mL without peptide
[13] = target: membrane Hsp70 on mouse tumor cells (mouse) (UniProt Q61696); assay: flow cytometry, CT26 cells from tissue culture; antibody not named
[14] = target: membrane Hsp70 on mouse tumor cells (mouse) (UniProt Q61696); assay: flow cytometry, single cell suspensions of CT26 tumors from mice on day 14; antibody not named
[15] = target: membrane Hsp70 on mouse tumor cells (mouse) (UniProt Q61696); assay: flow cytometry, single-cell suspensions of CT26 tumors from mice on day 14; antibody not named
[16] = target: membrane Hsp70 on mouse tumor cells (mouse) (UniProt Q61696); assay: flow cytometry at 4 C, viable A20 (BALB/c) B cell lymphoma cells (counted as membrane Hsp70 negative, limit 15%)
[17] = target: membrane Hsp70 on mouse tumor cells (mouse) (UniProt Q61696); assay: flow cytometry at 4 C, viable 1048 (BALB/c) pancreatic carcinoma cells (counted as membrane Hsp70 negative, limit 15%)
[18] = target: membrane Hsp70 on mouse tumor cells (mouse) (UniProt Q61696); assay: flow cytometry, cmHsp70.1-FITC on viable CT26 mouse colon carcinoma cells; IgG1 isotype control as white histogram
[19] = target: monoclonal antibody cmHsp70.1 as produced by hybridoma cmHsp70.1 (DSM ACC2629); assay: flow cytometry at 4 C, CT26 cells, cmHsp70.1-FITC 5 µg/mL plus TKD 25 µg/mL
[20] = target: monoclonal antibody cmHsp70.1 as produced by hybridoma cmHsp70.1 (DSM ACC2629); assay: flow cytometry at 4 C, CT26 cells, cmHsp70.1-FITC 5 µg/mL plus TKD 12.5 µg/mL

UniProt Q61696, sequence (Q61696 2-641): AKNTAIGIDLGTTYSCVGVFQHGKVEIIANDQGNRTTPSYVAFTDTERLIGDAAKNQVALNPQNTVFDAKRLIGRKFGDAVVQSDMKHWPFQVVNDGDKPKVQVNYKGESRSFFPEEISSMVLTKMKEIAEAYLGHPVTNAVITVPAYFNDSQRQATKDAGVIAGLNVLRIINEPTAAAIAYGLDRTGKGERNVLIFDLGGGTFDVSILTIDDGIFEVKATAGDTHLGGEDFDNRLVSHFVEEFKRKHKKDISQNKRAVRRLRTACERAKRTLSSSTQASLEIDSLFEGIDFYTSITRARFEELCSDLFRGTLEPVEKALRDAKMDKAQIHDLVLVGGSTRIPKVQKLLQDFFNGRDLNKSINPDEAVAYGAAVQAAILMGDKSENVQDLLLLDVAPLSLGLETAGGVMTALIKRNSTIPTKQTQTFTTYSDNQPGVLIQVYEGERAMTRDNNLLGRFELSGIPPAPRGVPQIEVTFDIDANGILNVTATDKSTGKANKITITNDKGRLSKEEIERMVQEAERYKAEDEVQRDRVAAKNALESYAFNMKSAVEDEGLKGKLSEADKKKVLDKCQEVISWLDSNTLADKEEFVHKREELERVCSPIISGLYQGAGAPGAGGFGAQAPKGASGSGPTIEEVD

IgG1 O×7.11 mAb (antibody)
positive cells (%) [1]: 56%

monoclonal antibody cmHsp70.1 as produced by hybridoma cmHsp70.1 (DSM ACC2629)
ADCC against CT26 tumor cells (4 h 51Cr release, unstimulated mouse spleen cells) [2]: 1.4 µg/mL | Hsp70 membrane-positive cells (%) [3]: 55% | membrane Hsp70+ cells (%) [4]: 60% | cmHsp70.1+ cells (%) [5]: 61% | Hsp70 membrane-positive cells (%) [6]: 45% | Hsp70 membrane-positive cells (%) [7]: 70% | Hsp70 membrane-positive cells (%) [8]: 97% | Hsp70 membrane-positive cells (%) [9]: 44% | Kd [10]: 5.4 nM | koff [10]: 0.000379 s⁻¹ | kon [10]: 69900 M⁻¹ s⁻¹ | membrane Hsp70+ cells (%) [11]: 46.2% | membrane Hsp70+ cells (%) [12]: 59% and 60% | Hsp70 membrane positive cells (%) [13]: 56.2% | Hsp70 membrane positive cells (%) [14]: 79.8% | membrane Hsp70+ cells (%) [15]: 69.8% | Hsp70 membrane-positive cells (%) [16]: 5% | Hsp70 membrane-positive cells (%) [17]: 12% | positive cells in the marker gate [18]: 59%

14-mer Hsp70 peptide TKD (…)
membrane Hsp70+ cells (%) left in the presence of the peptide [19]: < 15% | membrane Hsp70+ cells (%) left in the presence of the peptide [20]: 44%
